Reference: publication PMC7616460, “Skraban-Deardorff intellectual disability syndrome-associated mutations in WDR26 impair CTLH E3 complex assembly” (FEBS letters, 2024)

Target: the molecule itself
Test: cryo-EM structure; focused refinement (Relion v4.0) of the prior map EMD-12545 over the WDR26-YPEL5 region, 6.7 Å; fitted with AlphaFold2 models

B1: WDR26 in the CTLH subcomplex of the cryo-EM map EMD-12545 / EMD-19039 (natural protein, human, UniProt Q9H7D7 1-661, looked up)
chain: MQANGAGGGGGGGGGGGGGGGGGGGQGQTPELACLSAQNGESSPSSSSSAGDLAHANGLLPSAPSAASNNSNSLNVNNGVPGGAAAASSATVAAASATTAASSSLATPELGSSLKKKKRLSQSDEDVIRLIGQHLNGLGLNQTVDLLMQESGCRLEHPSATKFRNHVMEGDWDKAENDLNELKPLVHSPHAIVVRGALEISQTLLGIIVRMKFLLLQQKYLEYLEDGKVLEALQVLRCELTPLKYNTERIHVLSGYLMCSHAEDLRAKAEWEGKGTASRSKLLDKLQTYLPPSVMLPPRRLQTLLRQAVELQRDRCLYHNTKLDNNLDSVSLLIDHVCSRRQFPCYTQQILTEHCNEVWFCKFSNDGTKLATGSKDTTVIIWQVDPDTHLLKLLKTLEGHAYGVSYIAWSPDDNYLVACGPDDCSELWLWNVQTGELRTKMSQSHEDSLTSVAWNPDGKRFVTGGQRGQFYQCDLDGNLLDSWEGVRVQCLWCLSDGKTVLASDTHQRIRGYNFEDLTDRNIVQEDHPIMSFTISKNGRLALLNVATQGVHLWDLQDRVLVRKYQGVTQGFYTIHSCFGGHNEDFIASGSEDHKVYIWHKRSELPIAELTGHTRTVNCVSWNPQIPSMMASASDDGTVRIWGPAPFIDHQNIEEECSSMDS
notes: WDR26, human; the fitted AlphaFold2 model is of isoform 1 (Q9H7D7-1); subcomplex held WDR26, RANBP9, TWA1, ARMC8, GID4 and YPEL5; also called WDR26 dimer
stoichiometry N: 2
